Data on 32 variants can be found in the RNAGym collection of RNA variant scans (doi:10.7554/elife.80360).

B1: HDV Ribozyme (parent)
chain: GGCCGGCAUGGUCCCAGCCUCCUCGCUGGCGCCGGCUGGGCAACAUUCCGAGGGGACCGUCCCCUCGGUAAUGGCGAAUGGGACCCA

In this data set the parent is B1. The data set can be described thus: self-cleavage, relative activity (ratio to wild type); higher = more cleavage; co-transcriptional.
As to GGCCGGCAUGGUCCCAGCCUCCUCGCUGGCGACGGCUGGGCAACAUUUCGAGGGGACCGUCCCCUCGGUAAUGGCGAAUGGGACCCA [C32A C48U], the self-cleavage was found to be 0.106.

Turning to GGCCGGCAUGGUCCCAGCCUCCUCGCUGGCUCCGGCUGGGCAACAGUCCGAGGGGACCGUCCCCUCGGUAAUGGCGAAUGGGACCCA [G31U U46G], the self-cleavage is 0.38.

Take GGCCGGCAUGGUCCCAGCCUCCUCGCUGGCGACGGAUGGGCAACAUUCCGAGGGGACCGUCCCCUCGGUAAUGGCGAAUGGGACCCA [C32A C36A]: the self-cleavage is 0. Take GGCCGGCAUGGUCCCAGCCUCCUCGCUGGCGACGGGUGGGCAACAUUCCGAGGGGACCGUCCCCUCGGUAAUGGCGAAUGGGACCCA [C32A C36G]: the self-cleavage worked out at 0.162.

GGCCGGCAUGGUCCCAGCCUCCUCGCUGGCGACGGUUGGGCAACAUUCCGAGGGGACCGUCCCCUCGGUAAUGGCGAAUGGGACCCA [C32A C36U]: the self-cleavage is 0.0733.

Turning to GGCCGGCAUGGUCCCAGCCUCCUCGCUGGCGGCGGCUGGGCAACAUUCCGAGGGGACCGUCCCCUCGGUAAUGGCGAAUCGGACCCA [C32G G80C], the self-cleavage is 0. The result for GGCCGGCAUGGUCCCAGCCUCCUCGCUGGCGACGGCUGGGCAACAUUCCGAGGGGACCGUCCCCUCGGUAAUGGCGAACGGGACCCA [C32A U79C] reads 0.0733; that for GGCCGGCAUGGUCCCAGCCUCCUCGCUGGCGACGGCUGGGCAACAUUCCGAGGGGACCGUCCCCUCGGUAAUGGCGAAGGGGACCCA [C32A U79G], 0.133. The result for GGCCGGCAUGGUCCCAGCCUCCUCGCUGGCUCCGGCUGGGCAACAUUCCGAGGGGACCGUCCCCUCGGAAAUGGCGAAUGGGACCCA [G31U U69A] reads 0.511; that for GGCCGGCAUGGUCCCAGCCUCCUCGCUGGCGGUGGCUGGGCAACAUUCCGAGGGGACCGUCCCCUCGGUAAUGGCGAAUGGGACCCA [C32G C33U], 0.115. GGCCGGCAUGGUCCCAGCCUCCUCGCUGGCGGCAGCUGGGCAACAUUCCGAGGGGACCGUCCCCUCGGUAAUGGCGAAUGGGACCCA [C32G G34A]: the self-cleavage came out at 0.0875. Under GGCCGGCAUGGUCCCAGCCUCCUCGCUGGCGGCUGCUGGGCAACAUUCCGAGGGGACCGUCCCCUCGGUAAUGGCGAAUGGGACCCA [C32G G34U] stands 0.0415; under GGCCGGCAUGGUCCCAGCCUCCUCGCUGGCGGCGGCUGGGCAACAUUCCGAGGGGACCGUCCCCUCGGUAAUGGCGAAUGUGACCCA [C32G G81U], 0.0639; under GGCCGGCAUGGUCCCAGCCUCCUCGCUGGCGGCGGCUGGGCAACAUUCCGAGGGGUCCGUCCCCUCGGUAAUGGCGAAUGGGACCCA [C32G A56U], 0.0482. The result for GGCCGGCAUGGUCCCAGCCUCCUCGCUGGCGACGGCUGGGCAACAUUCCGAGGGGACCGUCCCCUCGGUAAUGGAGAAUGGGACCCA [C32A C75A] reads 0.0723; that for GGCCGGCAUGGUCCCAGCCUCCUCGCUGGCGACGGCUGGGCAACAUUCCGAGGGGACCGCCCCCUCGGUAAUGGCGAAUGGGACCCA [C32A U60C], 0.213.

In the case of GGCCGGCAUGGUCCCAGCCUCCUCGCUGGCGACGGCUGGGCAACAUUCCGAGGGGACCGACCCCUCGGUAAUGGCGAAUGGGACCCA [C32A U60A], the self-cleavage is 0.252. Under GGCCGGCAUGGUCCCAGCCUCCUCGCUGGCUCCGGCUGGGCAACAUUCCGAGGGGACCGUCCCCCCGGUAAUGGCGAAUGGGACCCA [G31U U65C] stands 0.339. Under GGCCGGCAUGGUCCCAGCCUCCUCGCUGGCGACGCCUGGGCAACAUUCCGAGGGGACCGUCCCCUCGGUAAUGGCGAAUGGGACCCA [C32A G35C] stands 0.0405. The result for GGCCGGCAUGGUCCCAGCCUCCUCGCUGGCGGCGGCUGGGCAACAUUCCGGGGGGACCGUCCCCUCGGUAAUGGCGAAUGGGACCCA [C32G A51G] reads 0.0665; that for GGCCGGCAUGGUCCCAGCCUCCUCGCUGGCGGCGGCUGGGCAACAUUCCGCGGGGACCGUCCCCUCGGUAAUGGCGAAUGGGACCCA [C32G A51C], 0.0489. With GGCCGGCAUGGUCCCAGCCUCCUCGCUGGCUCCGGCUGGGCAACAUUCCGAGGGGACCGUCCCCUCGGUAACGGCGAAUGGGACCCA [G31U U72C], the self-cleavage was found to be 0.163. The result for GGCCGGCAUGGUCCCAGCCUCCUCGCUGGCGACGGCUGGGCAACAUUCCGAGGGGACCGUCCCCGCGGUAAUGGCGAAUGGGACCCA [C32A U65G] reads 0.122; that for GGCCGGCAUGGUCCCAGCCUCCUCGCUGGCGACGGCUGGGCAACAUUCCGAGGGGACCGUCCCCUCGGUAAUGGCGAAUGGCACCCA [C32A G82C], 0.0396. Under GGCCGGCAUGGUCCCAGCCUCCUCGCUGGCGACGGCUUGGCAACAUUCCGAGGGGACCGUCCCCUCGGUAAUGGCGAAUGGGACCCA [C32A G38U] stands 0.181; under GGCCGGCAUGGUCCCAGCCUCCUCGCUGGCGGCGGCUGGGCAAGAUUCCGAGGGGACCGUCCCCUCGGUAAUGGCGAAUGGGACCCA [C32G C44G], 0.0426. The result for GGCCGGCAUGGUCCCAGCCUCCUCGCUGGCGGCGGCUGGGCAACAUUCCGAGGGGAACGUCCCCUCGGUAAUGGCGAAUGGGACCCA [C32G C57A] reads 0.106. On to GGCCGGCAUGGUCCCAGCCUCCUCGCUGGCGACGGCUGGGCAACAUUCAGAGGGGACCGUCCCCUCGGUAAUGGCGAAUGGGACCCA [C32A C49A], for which the self-cleavage stood at 0.415.

Regarding GGCCGGCAUGGUCCCAGCCUCCUCGCUGGCGACGGCUGGGCAACAUUCCGAUGGGACCGUCCCCUCGGUAAUGGCGAAUGGGACCCA [C32A G52U], the self-cleavage turned out to be 0.134. Under GGCCGGCAUGGUCCCAGCCUCCUCGCUGGCGGCGGAUGGGCAACAUUCCGAGGGGACCGUCCCCUCGGUAAUGGCGAAUGGGACCCA [C32G C36A] stands 0.125. Under GGCCGGCAUGGUCCCAGCCUCCUCGCUGGCGGCGGCUGGGCAACAUUCCGAGGGGACCGUCCCCUCCGUAAUGGCGAAUGGGACCCA [C32G G67C] stands 0.149.

As for GGCCGGCAUGGUCCCAGCCUCCUCGCUGGCGACGGCUGGGCAACAUUCCGAGGGGACCGUCCCCUCGGUAAUGGCGAAUGGGACCGA [C32A C86G], the self-cleavage came to 0.243.
